binding affinity ratio (IC50 of standard peptide / IC50 of test peptide) (HLA-A*0301 (human)): 0.0005
binding affinity ratio (IC50 of standard peptide / IC50 of test peptide) (HLA-A*1101 (Human)): 0.0002
Binder: GSGEPLIDVH (modifications not checked) [… (P. falciparum EXP, position 42)]

— patent US9266930
